Measurements taken from patent US7807396.

Experiments:
[1] = target: dynorphin B-9 (UniProt P01213)
[2] = target: amyloid beta peptide Aβ1-40; experiment: cell-based or functional assay
[3] = target: human β-endorphin1-31 (human) (UniProt P01189); experiment: cell-based or functional assay
[4] = target: Aβ added to the cultures at 10 µM in a non-fibrillar state; experiment: cell-based or functional assay

human β-endorphin1-31 (human), sequence (P01189 237-267 limits assumed): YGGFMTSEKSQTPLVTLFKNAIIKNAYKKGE

trypsin
trypsin hydrolysis of the fluorogenic peptide Abz-GGFLRKHGQ-EDDnp (SEQ ID NO: 14) [1]: trypsin hydrolysis of the same peptide showed inhibition, not activation, by dynorphin B-9

recombinant rat insulysin with an N-terminal His6 affinity tag, expressed in baculovirus-infected Sf9 cells (from UniProt P35559 42-1019) (enzyme)
inhibition of deposition of 125I-Aβ1-40 onto pre-deposited Aβ1-40 (% inhibition with 50 ng of insulysin) [2]: 50

insulysin purified from a thymoma cell line, EL-4 (from UniProt Q9JHR7 42-1019) (enzyme)
specific activity of enzyme purified from a thymoma cell line, EL-4 [3]: 3.3 µmols/min/mg

human neprilysin expressed from a lentiviral construct in primary neuronal cultures of neprilysin deficient mice (from UniProt P08473 2-750) (enzyme)
survival of neuronal cells subjected to Aβ induced neurotoxicity (% increase in cell survival) [4]: 75
